From article PMC4990988, “Defective recognition of LC3B by mutant SQSTM1/p62 implicates impairment of autophagy as a pathogenic mechanism in ALS-FTLD” (Autophagy, 2016)

Biological target: LC3B (microtubule-associated protein 1 light chain 3 β) (human, UniProt Q9GZQ8 1-120)
Assay: ITC; LIR peptide stock (350 µM) injected into LC3B in the cell, 298 K, 25 mM phosphate buffer, 150 mM NaCl, pH 7.5; one-site binding model
Settings: both partners purified

Row | Kd [µM] | Binder
1 | 3.2 ± 1.1 | SGGDDDWTHLSSKEVDPSTG (source: synthetic peptide (PeptideSynthetics, purity > 98%)) [WT LIR peptide (residues 332 to 351 of human SQSTM1)]
2 | 10.9 ± 1.1 | SGGDDDWTHVSSKEVDPSTG (SQSTM1/p62, human, residues 332 to 351 with the ALS-associated L341V mutation; also called L341V-mutant LIR; mutant LIR; source: synthetic peptide (PeptideSynthetics, purity > 98%)) [LIR (L341V) peptide (residues 332 to 351 of human SQSTM1 with L341V)]
